This passage reports Kd results from patent US20080199424A1.

The assay has as its target MART-126-35/HLA-A2.1 tetramer (human). In words: equilibrium tetramer staining at 0.1-25 nM, flow cytometry, Scatchard plot (KD=1/slope). (Flow cytometry measures light scatter and fluorescence of single cells or particles in a stream.)

In general, Kd refers to the concentration at which binding is half-saturated. For the substance “MART-1 TCR native PBMC (T cells obtained by leukapheresis from the MART-1 TCR donor patient)”, the Kd was in the range of 4 to 6 nM.
